Tests used:
[1] = molecular target: spike glycoprotein of wild type SARS-CoV-2 virus (SARS-CoV-2, UniProt P0DTC2 14-1273); assay: cell-based or functional assay
[2] = molecular target: T1, SARS-CoV-2 spike S2 subunit (SARS-CoV-2, UniProt P0DTC2 686-1213); assay: ELISA
T1 construct: domain: S2 subunit

[3] = molecular target: T2, MERS spike extracellular domain (Middle East respiratory syndrome …, UniProt K9N5Q8 18-1296); assay: ELISA
T2 construct: extracellular domain

SARS spike S1 subunit = molecular target: T3, SARS spike S1 subunit (severe acute respiratory syndrome …, UniProt P59594 14-667); assay: ELISA
T3 construct: domain: S1 subunit

[4] = molecular target: T4, Human coronavirus OC43 spike extracellular domain (human coronavirus OC43, UniProt P36334 14-1297); assay: ELISA
T4 construct: extracellular domain

[5] = molecular target: T5, SARS-CoV-2 nucleocapsid protein (SARS-CoV-2, UniProt P0DTC9 1-419); assay: ELISA on recombinant protein
T5 construct: also called N protein

[6] = molecular target: T6, SARS-CoV-2 spike receptor binding domain (RBD) (SARS-CoV-2, UniProt P0DTC2 319-541); assay: ELISA
T6 construct: also called SARS-CoV-2 RBD

B1: FI 1C (antibody, V domains shown)
VH: EVQLVESGGGLVKPGGSLRLSCAASGFTFSDYYMSWIRQAPGKGLEWVSYISSSGSTIYYADSVKGRFTISRDNAKNSLYLQMNSLRAEDTAVYYCARRSNRFLIAFDIWGQGTMVTVSS
VL: QSALTQPASVSGSPGQTITISCTGTSSDVGGYNYVSWYQQHPGKAPKLMIYEVSNRPSGVSNRFSGSKSGNTASLTISGLQAEDEADYYCSSYTSSSTLVVFGGGTKLTVP
Neutralization by FMNT EC50 [1]: 2.24 nM | Neutralization by PRNT EC50 [1]: 16.7 nM | binding result [2]: no binding | binding result [3]: no binding | binding result (SARS spike S1 subunit): no binding | binding result [4]: no binding

B2: EY 6A-1 (antibody, V domains shown)
VH: EVQLVESGGGVVQPGRSLRLSCAASAFTFSSYDMHWVRQAPGKGLEWVAVISYDGSNKYYADSVKGRFTISRDNSKNTLYLQMNSLRAEDTAVYYCAKDGGKLWVYYFDYWGQGTLVTVSS
VL: not shown
Neutralization by FMNT EC50 [1]: 22.5 nM | Neutralization by PRNT EC50 [1]: 133 nM | binding result [2]: no binding | binding result [3]: no binding | binding result (SARS spike S1 subunit): binds | binding result [4]: no binding

B3: EZ 7B (antibody, V domains shown)
VH: EVQLVESSPGLVKPSETLSLTCTVSGGSISSYYWSWIRQPPGKGLEWIGYIYYSGSTNYNPSLKSRVTISVDTSKNQFSLKLSSVTAADTAVYYCARRVFGPVLPSKLGGSYWGGGAFDIWGQGTMVTVSS
VL: not shown
binding result [5]: binds

B4: EY 8A (antibody, V domains shown)
VH: EVQLVESGPGLVKPSQTLSLTCTVSGGSISSGSYYWSWIRQPAGKGLEWIGRIYTSGSTNYNPSLKSRVTISVDTSKNQFSLKLSSVTAADTAVYYCAKGHVISGYDDYYYYYGMDVWGQGTTVTVSS
VL: not shown
binding result [5]: binds

B5: FD 11C (antibody, V domains shown)
VH: EVQLLESGPGLVKPSETLSLTCTVSGGSISSSSYYWGWIRQPPGKGLEWIGSIYYSGSTYYNPSLKSRVTISVDTSKNQFSLKLSSVTAADTAVYYCAREYYYGSETKKYYYYYGMDVWGQGTTVTVSS
VL: not shown
binding result [2]: no binding | binding result [6]: no binding | binding result [3]: no binding | binding result (SARS spike S1 subunit): no binding | binding result [4]: no binding

B6: FD 11D (antibody, V domains shown)
VH: EVQLVESGGGVVQPGRSLRLSCAASGFTFSSYGMHWVRQAPGKGLEWVAVISYDGSNKYYADSVKGRFTISRDNSKNTLYLQMNSLRAEDTAVYYCAKEGAGSGWYRHHKPGYYFDYWGQGTLVTVSS
VL: not shown
binding result [2]: no binding | binding result [6]: no binding | binding result [3]: binds | binding result (SARS spike S1 subunit): binds | binding result [4]: binds

B7: EY 5A (antibody, V domains shown)
VH: EVQLVESGPGLVKPSGTLFLTCTVSGGSISNYYWSWIRQPPGKALEWIGFIYSNGNTDYNPSLQSRVTISGDTSKNQFSLNLRSVTAADTAVYYCARGPGPATGGSLDYWGQGTMVTVSS
VL: not shown
binding result [5]: binds

B8: EZ 4C kappa (antibody, V domains shown)
VH: EVQLVESGPGLVKPSETLSLTCTVSGGSVSSGNNYWSWIRQPPGKALEWIGYIYYSGSTKYNPSLKSRVTMSVGTSKNQFSLKVNSVTAADTAMYYCARAPSAPFGGLFDWILPKGINNWGQGTLVTVSS
VL: EIVLTQSPSTLSASVGDRVTITCRTSQSIRSWLAWYQQKPGKAPKLLIFEASTLESGVPERFSGSGSGAEFTLTISSLQPDDFATYYCQQYNGYSYSFGQGTKVEIR
notes: also called EZ 4C-1
binding result [5]: binds

B9: EZ 4A (antibody, V domains shown)
VH: EVQLVQSGAEVKKPGESLKISCKGSGYSFTSYWIGWVRQMPGKGLEWMGIIYPGDSDTRYSPSFQGQVTISADKSISTAYLQWSSLKASDTAMYYCARSPIAADLFDYWGQGTLVTVSS
VL: not shown
binding result [5]: binds
